# Assay results: US20070086998A1 (GPC BIOTECH, published 2007)
# T1: HLA-DR on PRIESS cells (DRA*0101/DRB1*0401) (human, UniProt P01903 26-254; P01911 30-266)
# T1 MHC II alpha: not shown
# T1 MHC II beta: not shown
# What was measured:
# Assay in all cases: cell-based or functional assay
# [1] = biological target: T2, chimeric DR-IE (human-mouse chimeric MHC class II molecule) (human; murine)
# [2] = biological target: T1, HLA-DR on PRIESS cells …
# [3] = biological target: HLA-DR on LG-2 cells (human)
# [4] = biological target: T1, HLA-DR on PRIESS cells …
# [5] = biological target: HLA-DR on LG-2 cells (human); remark: listed apart in the source
# [6] = biological target: T2, chimeric DR-IE (human-mouse chimeric …); remark: listed apart in the source
binder,measurement,setting,value
"MS-GPC-8-6-47 (Fab) (Fab, V domains shown) VH: QVQLKESGPALVKPTQTLTLTCTFSGFSLSTSGVGVGWIRQPPGKALEWLALIDWDDDKYYSTSLKTRLTISKDTSKNQVVLTMTNMDPVDTATYYCARSPRYRGAFDYWGQGTLVTVSS VL: DIVLTQPPSVSGAPGQRVTISCSGSESNIGSNYVSWYQQLPGTAPKLLIYDNNQRPSGVPDRFSGSKSGTSASLAITGLQSEDEADYYCQSYDYDHYVFGGGTKLTVLG","IC50, IL-2 secretion of T-Hyb 1 cells stimulated by 0401-IE transgenic APC; Fab",[1],2.6 nM (Fab concentration/2)
same,"Maximum inhibition(%), IL-2 secretion of T-Hyb 1 cells; Fab",[1],100%
"MS-GPC-8-6-2 (Fab) (Fab, V domains shown) VH: QVQLKESGPALVKPTQTLTLTCTFSGFSLSTSGVGVGWIRQPPGKALEWLALIDWDDDKYYSTSLKTRLTISKDTSKNQVVLTMTNMDPVDTATYYCARSPRYRGAFDYWGQGTLVTVSS VL: DIVLTQPPSVSGAPGQRVTISCSGSESNIGSNYVHWYQQLPGTAPKLLIYDNNQRPSGVPDRFSGSKSGTSASLAITGLQSEDEADYYCQSYDYDHYVFGGGTKLTVLG",EC50 of cell killing for bivalent agent; PRIESS; Fab cross-linked with anti-FLAG M2,[2],8 nM
same,"IC50, IL-2 secretion of T-Hyb 1 cells stimulated by 0401-IE transgenic APC; Fab",[1],4.7 nM (Fab concentration/2)
same,"Maximum inhibition(%), IL-2 secretion of T-Hyb 1 cells; Fab",[1],100%
"MS-GPC-8-6-2 (IgG form) (antibody, V domains shown) VH: QVELKESGPALVKPTQTLTLTCTFSGFSLSTSGVGVGWIRQPPGKALEWLALIDWDDDKYYSTSLKTRLTISKDTSKNQVVLTMTNMDPVDTATYYCARSPRYRGAFDYWGQGTLVTVSS VL: DIVLTQPPSVSGAPGQRVTISCSGSESNIGSNYVHWYQQLPGTAPKLLIYDNNQRPSGVPDRFSGSKSGTSASLAITGLQSEDEADYYCQSYDYDHYVFGGGTKLTVLG","IC50, IL-2 secretion of T-Hyb 1 cells stimulated by 0401-IE transgenic APC; IgG",[1],3.6 nM
same,"Maximum inhibition(%), IL-2 secretion of T-Hyb 1 cells; IgG",[1],100%
"MS-GPC-8-6 (IgG form) (antibody, V domains shown) VH: QVELKESGPALVKPTQTLTLTCTFSGFSLSTSGVGVGWIRQPPGKALEWLALIDWDDDKYYSTSLKTRLTISKDTSKNQVVLTMTNMDPVDTATYYCARSPRYRGAFDYWGQGTLVTVSS VL: DIVLTQPPSVSGAPGQRVTISCSGSSSNIGSNYVSWYQQLPGTAPKLLIYDNNQRPSGVPDRFSGSKSGTSASLAITGLQSEDEADYYCQSYDYDHYVFGGGTKLTVLG","IC50, IL-2 secretion of T-Hyb 1 cells stimulated by 0401-IE transgenic APC; IgG",[1],6.7 nM
same,"Maximum inhibition(%), IL-2 secretion of T-Hyb 1 cells; IgG",[1],100%
"MS-GPC-8-6-13 (Fab) (Fab, V domains shown) VH: QVQLKESGPALVKPTQTLTLTCTFSGFSLSTSGVGVGWIRQPPGKALEWLALIDWDDDKYYSTSLKTRLTISKDTSKNQVVLTMTNMDPVDTATYYCARSPRYRGAFDYWGQGTLVTVSS VL: DIVLTQPPSVSGAPGQRVTISCSGSESNIGANYVTWYQQLPGTAPKLLIYDNNQRPSGVPDRFSGSKSGTSASLAITGLQSEDEADYYCQSYDYDHYVFGGGTKLTVLG","IC50, IL-2 secretion of T-Hyb 1 cells stimulated by 0401-IE transgenic APC; Fab",[1],2.1 nM (Fab concentration/2)
same,"Maximum inhibition(%), IL-2 secretion of T-Hyb 1 cells; Fab",[1],100%
"MS-GPC-8-10-57 (Fab) (Fab, V domains shown) VH: QVQLKESGPALVKPTQTLTLTCTFSGFSLSTSGVGVGWIRQPPGKALEWLALIDWDDDKYYSTSLKTRLTISKDTSKNQVVLTMTNMDPVDTATYYCARSPRYRGAFDYWGQGTLVTVSS VL: DIVLTQPPSVSGAPGQRVTISCSGSESNIGNNYVQWYQQLPGTAPKLLIYDNNQRPSGVPDRFSGSKSGTSASLAITGLQSEDEADYYCQSYDLIRHVFGGGTKLTVLG",EC50 of cell killing for bivalent agent; LG2; Fab cross-linked with anti-FLAG M2,[3],7.2 nM
same,"IC50, IL-2 secretion of T-Hyb 1 cells stimulated by 0401-IE transgenic APC; Fab",[1],2.9 nM (Fab concentration/2)
same,"Maximum inhibition(%), IL-2 secretion of T-Hyb 1 cells; Fab",[1],100%
"MS-GPC-8-6-19 (Fab) (Fab, V domains shown) VH: QVQLKESGPALVKPTQTLTLTCTFSGFSLSTSGVGVGWIRQPPGKALEWLALIDWDDDKYYSTSLKTRLTISKDTSKNQVVLTMTNMDPVDTATYYCARSPRYRGAFDYWGQGTLVTVSS VL: DIVLTQPPSVSGAPGQRVTISCSGSESNIGSNYVAWYQQLPGTAPKLLIYDNNQRPSGVPDRFSGSKSGTSASLAITGLQSEDEADYYCQSYDYDHYVFGGGTKLTVLG","IC50, IL-2 secretion of T-Hyb 1 cells stimulated by 0401-IE transgenic APC; Fab",[1],5.3 nM (Fab concentration/2)
same,"Maximum inhibition(%), IL-2 secretion of T-Hyb 1 cells; Fab",[1],100%
"MS-GPC-8-17 (Fab) (Fab, V domains shown) VH: QVQLKESGPALVKPTQTLTLTCTFSGFSLSTSGVGVGWIRQPPGKALEWLALIDWDDDKYYSTSLKTRLTISKDTSKNQVVLTMTNMDPVDTATYYCARSPRYRGAFDYWGQGTLVTVSS VL: DIVLTQPPSVSGAPGQRVTISCSGSSSNIGSNYVSWYQQLPGTAPKLLIYDNNQRPSGVPDRFSGSKSGTSASLAITGLQSEDEADYYCQSYDFSVYVFGGGTKLTVLG",EC50 of cell killing for bivalent agent; PRIESS; Fab cross-linked with anti-FLAG M2,[2],16 nM
"MS-GPC-8-27-41 (Fab) (Fab, V domains shown) VH: QVQLKESGPALVKPTQTLTLTCTFSGFSLSTSGVGVGWIRQPPGKALEWLALIDWDDDKYYSTSLKTRLTISKDTSKNQVVLTMTNMDPVDTATYYCARSPRYRGAFDYWGQGTLVTVSS VL: DIVLTQPPSVSGAPGQRVTISCSGSESNIGNNYVQWYQQLPGTAPKLLIYDNNQRPSGVPDRFSGSKSGTSASLAITGLQSEDEADYYCQSYDMNVHVFGGGTKLTVLG",EC50 of cell killing for bivalent agent; PRIESS; Fab cross-linked with anti-FLAG M2,[2],7.7 nM
same,EC50 of cell killing for bivalent agent; LG2; Fab cross-linked with anti-FLAG M2,[3],7.2 nM
same,"IC50, IL-2 secretion of T-Hyb 1 cells stimulated by 0401-IE transgenic APC; Fab",[1],3.6 nM (Fab concentration/2)
same,"Maximum inhibition(%), IL-2 secretion of T-Hyb 1 cells; Fab",[1],100%
"MS-GPC-8-27-10 (Fab) (Fab, V domains shown) VH: QVQLKESGPALVKPTQTLTLTCTFSGFSLSTSGVGVGWIRQPPGKALEWLALIDWDDDKYYSTSLKTRLTISKDTSKNQVVLTMTNMDPVDTATYYCARSPRYRGAFDYWGQGTLVTVSS VL: DIVLTQPPSVSGAPGQRVTISCSGSESNIGANYVNWYQQLPGTAPKLLIYDNNQRPSGVPDRFSGSKSGTSASLAITGLQSEDEADYYCQSYDMNVHVFGGGTKLTVLG","IC50, IL-2 secretion of T-Hyb 1 cells stimulated by 0401-IE transgenic APC; Fab",[1],7.3 nM (Fab concentration/2)
same,"Maximum inhibition(%), IL-2 secretion of T-Hyb 1 cells; Fab",[1],100%
"MS-GPC-8-10-57 (IgG4 form) (antibody, V domains shown) VH: QVELKESGPALVKPTQTLTLTCTFSGFSLSTSGVGVGWIRQPPGKALEWLALIDWDDDKYYSTSLKTRLTISKDTSKNQVVLTMTNMDPVDTATYYCARSPRYRGAFDYWGQGTLVTVSS VL: DIVLTQPPSVSGAPGQRVTISCSGSESNIGNNYVQWYQQLPGTAPKLLIYDNNQRPSGVPDRFSGSKSGTSASLAITGLQSEDEADYYCQSYDLIRHVFGGGTKLTVLG",EC50 of cell killing for bivalent agent; PRIESS; IgG4,[2],1.1 nM
same,EC50 of cell killing for bivalent agent; LG2; IgG4,[3],1 nM
same,"% Killing by mAb; PRIESS (DR 4,4); 50 nM, 4 h",[4],93%
same,"% Killing by mAb; LG-2 (DR 1,1); 50 nM, 4 h",[5],88%
same,"IC50 value for inhibition of T cell proliferation (lymph node cells of chimeric 0401-IE transgenic mice, ovalbumin)",[6],11 nM
same,"IC50, IL-2 secretion of T-Hyb 1 cells stimulated by 0401-IE transgenic APC; IgG",[1],0.31 nM
same,"Maximum inhibition(%), IL-2 secretion of T-Hyb 1 cells; IgG",[1],100%
"MS-GPC-8-6 (Fab) (Fab, V domains shown) VH: QVQLKESGPALVKPTQTLTLTCTFSGFSLSTSGVGVGWIRQPPGKALEWLALIDWDDDKYYSTSLKTRLTISKDTSKNQVVLTMTNMDPVDTATYYCARSPRYRGAFDYWGQGTLVTVSS VL: DIVLTQPPSVSGAPGQRVTISCSGSSSNIGSNYVSWYQQLPGTAPKLLIYDNNQRPSGVPDRFSGSKSGTSASLAITGLQSEDEADYYCQSYDYDHYVFGGGTKLTVLG","IC50, IL-2 secretion of T-Hyb 1 cells stimulated by 0401-IE transgenic APC; Fab",[1],20 nM (Fab concentration/2)
same,"Maximum inhibition(%), IL-2 secretion of T-Hyb 1 cells; Fab",[1],100%
"MS-GPC-1-Fab (Fab, V domains shown) VH: QVQLKESGPALVKPTQTLTLTCTFSGFSLSTSGVGVGWIRQPPGKALEWLALIDWDDDKYYSTSLKTRLTISKDTSKNQVVLTMTNMDPVDTATYYCARQYGHRGGFDHWGQGTLVTVSS VL: DIVLTQPPSVSGAPGQRVTISCSGSSSNIGSNYVSWYQQLPGTAPKLLIYDNNQRPSGVPDRFSGSKSGTSASLAITGLQSEDEADYYCQSYDFNESVFGGGTKLTVLG",EC50 of cell killing for bivalent agent; PRIESS; Fab cross-linked with anti-FLAG M2,[2],54 nM
"MS-GPC-8-27-7 (Fab) (Fab, V domains shown) VH: QVQLKESGPALVKPTQTLTLTCTFSGFSLSTSGVGVGWIRQPPGKALEWLALIDWDDDKYYSTSLKTRLTISKDTSKNQVVLTMTNMDPVDTATYYCARSPRYRGAFDYWGQGTLVTVSS VL: DIVLTQPPSVSGAPGQRVTISCSGSESNIGNNYVGWYQQLPGTAPKLLIYDNNQRPSGVPDRFSGSKSGTSASLAITGLQSEDEADYYCQSYDMNVHVFGGGTKLTVLG","IC50, IL-2 secretion of T-Hyb 1 cells stimulated by 0401-IE transgenic APC; Fab",[1],5.9 nM (Fab concentration/2)
same,"Maximum inhibition(%), IL-2 secretion of T-Hyb 1 cells; Fab",[1],100%
"MS-GPC-8-6-13 (IgG4 form) (antibody, V domains shown) VH: QVELKESGPALVKPTQTLTLTCTFSGFSLSTSGVGVGWIRQPPGKALEWLALIDWDDDKYYSTSLKTRLTISKDTSKNQVVLTMTNMDPVDTATYYCARSPRYRGAFDYWGQGTLVTVSS VL: DIVLTQPPSVSGAPGQRVTISCSGSESNIGANYVTWYQQLPGTAPKLLIYDNNQRPSGVPDRFSGSKSGTSASLAITGLQSEDEADYYCQSYDYDHYVFGGGTKLTVLG","% Killing by mAb; PRIESS (DR 4,4); 50 nM, 4 h",[4],74%
same,"% Killing by mAb; LG-2 (DR 1,1); 50 nM, 4 h",[5],82%
same,"IC50, IL-2 secretion of T-Hyb 1 cells stimulated by 0401-IE transgenic APC; IgG",[1],0.42 nM
same,"Maximum inhibition(%), IL-2 secretion of T-Hyb 1 cells; IgG",[1],100%
"MS-GPC-8-6-27 (Fab) (Fab, V domains shown) VH: QVQLKESGPALVKPTQTLTLTCTFSGFSLSTSGVGVGWIRQPPGKALEWLALIDWDDDKYYSTSLKTRLTISKDTSKNQVVLTMTNMDPVDTATYYCARSPRYRGAFDYWGQGTLVTVSS VL: DIVLTQPPSVSGAPGQRVTISCSGSDSNIGANYVTWYQQLPGTAPKLLIYDNNQRPSGVPDRFSGSKSGTSASLAITGLQSEDEADYYCQSYDYDHYVFGGGTKLTVLG","IC50, IL-2 secretion of T-Hyb 1 cells stimulated by 0401-IE transgenic APC; Fab",[1],3 nM (Fab concentration/2)
same,"Maximum inhibition(%), IL-2 secretion of T-Hyb 1 cells; Fab",[1],100%
"MS-GPC-10-Fab (Fab, V domains shown) VH: QVQLKESGPALVKPTQTLTLTCTFSGFSLSTSGVGVGWIRQPPGKALEWLALIDWDDDKYYSTSLKTRLTISKDTSKNQVVLTMTNMDPVDTATYYCARQLHYRGGFDLWGQGTLVTVSS VL: DIVLTQPPSVSGAPGQRVTISCSGSSSNIGSNYVSWYQQLPGTAPKLLIYDNNQRPSGVPDRFSGSKSGTSASLAITGLQSEDEADYYCQSYDLTMGVFGGGTKLTVLG",EC50 of cell killing for bivalent agent; PRIESS; Fab cross-linked with anti-FLAG M2,[2],33 nM
